Assay results published in the supplement of paper PMC6757056.
± gives the standard deviation of the averaged measurements.

B1: library; a variant is named by its letters at N, in order (parent)
chain: GCUGUCACCGGAAUACCAGCAUCGUCUUGAUGCCCUUGGAAGUCCGGUCUGAUGAGUCCNNNNNGGACGAAACAGC

Legend:
theophylline [1] = variants of: B1; experiment: FACS-Seq fitted mean relative fluorescence mCherry/BFP without ligand (log10 relative fluorescence); higher = higher reporter protein expression; conditions: HEK293T, ligand present: no
In short: (§1)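 Lentivirally transduced HEK293T libraries carried an mCherry reporter with the ribozyme switch and an EF1α-BFP marker. Transduced cells were enriched, then incubated with or without ligand for 48 h and sorted into 6 bins by mCherry/BFP. Genomic DNA from each bin was PCR-amplified, barcoded and sequenced on MiSeq. Fluorescence was the fitted normal mean of log10(mCherry/BFP) bin counts, scaled to five spiked-in control ribozymes.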

theophylline [2] = variants of: B1; experiment: normalized RNA/DNA level with ligand (relative to sTRSVctl = 100) (log10 (% of sTRSVctl)); higher = less ribozyme self-cleavage, higher mRNA level; conditions: ligand concentration (+) RNA-Seq: 5 mM, HEK293T, reporter: mCherry (pCS4076), ligand present: yes
In short: (§2)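 For each 6-well well, 4 µg of library plasmid encoding mCherry-linked ribozyme switches, or eGFP-linked ones in some ligand experiments, was transfected into HEK293T. Any ligand was added 1 h before transfection, and RNA was extracted with EDTA 72 h after it, then reverse-transcribed, amplified, barcoded and sequenced. RNA level was obtained by dividing RNA reads by DNA reads, normalizing to a spiked-in non-cleaving sequence or to the top sequences, then scaling and log-transforming. The top set was 25 sequences, scaling was ×100 with log10, and ≥100 DNA reads were required.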

theophylline [3] = variants of: B1; experiment: normalized RNA/DNA level without ligand (relative to sTRSVctl = 100) (log10 (% of sTRSVctl)); higher = less ribozyme self-cleavage, higher mRNA level; conditions: HEK293T, reporter: mCherry (pCS4076), ligand present: no
In short: as §2

theophylline [4] = variants of: B1; experiment: FACS-Seq fitted mean relative fluorescence mCherry/BFP with ligand (log10 relative fluorescence); ligand concentration (+) FACS-Seq: 1 mM; higher = higher reporter protein expression; conditions: HEK293T, ligand present: yes
In short: as §1

GCUGUCACCGGAAUACCAGCAUCGUCUUGAUGCCCUUGGAAGUCCGGUCUGAUGAGUCCUUCGUGGACGAAACAGC [UUCGU]
FACS-Seq fitted mean (log10) (theophylline [1]): 0.93 ± 0.0046 | normalized RNA/DNA level with ligand (log10) (theophylline [2]): 2.08 ± 0.14 | normalized RNA/DNA level without ligand (log10) (theophylline [3]): 2.02 ± 0.059 | FACS-Seq fitted mean (log10) (theophylline [4]): 0.939 ± 0.067

GCUGUCACCGGAAUACCAGCAUCGUCUUGAUGCCCUUGGAAGUCCGGUCUGAUGAGUCCAUCGAGGACGAAACAGC [AUCGA]
FACS-Seq fitted mean (log10) (theophylline [1]): 0.863 ± 0.17 | normalized RNA/DNA level with ligand (log10) (theophylline [2]): 2.02 ± 0.087 | normalized RNA/DNA level without ligand (log10) (theophylline [3]): 1.76 ± 0.19 | FACS-Seq fitted mean (log10) (theophylline [4]): 0.825 ± 0.13

GCUGUCACCGGAAUACCAGCAUCGUCUUGAUGCCCUUGGAAGUCCGGUCUGAUGAGUCCAUCGGGGACGAAACAGC [AUCGG]
FACS-Seq fitted mean (log10) (theophylline [1]): 0.827 ± 0.073 | normalized RNA/DNA level with ligand (log10) (theophylline [2]): 1.91 ± 0.11 | normalized RNA/DNA level without ligand (log10) (theophylline [3]): 1.87 ± 0.051 | FACS-Seq fitted mean (log10) (theophylline [4]): 0.782 ± 0.12

GCUGUCACCGGAAUACCAGCAUCGUCUUGAUGCCCUUGGAAGUCCGGUCUGAUGAGUCCAUCGUGGACGAAACAGC [AUCGU]
FACS-Seq fitted mean (log10) (theophylline [1]): 0.902 ± 0.057 | normalized RNA/DNA level with ligand (log10) (theophylline [2]): 2.03 ± 0.13 | normalized RNA/DNA level without ligand (log10) (theophylline [3]): 1.93 ± 0.042 | FACS-Seq fitted mean (log10) (theophylline [4]): 0.848 ± 0.063

GCUGUCACCGGAAUACCAGCAUCGUCUUGAUGCCCUUGGAAGUCCGGUCUGAUGAGUCCAUCGCGGACGAAACAGC [AUCGC]
FACS-Seq fitted mean (log10) (theophylline [1]): 0.925 ± 0.082 | normalized RNA/DNA level with ligand (log10) (theophylline [2]): 1.977 ± 0.017 | normalized RNA/DNA level without ligand (log10) (theophylline [3]): 1.92 ± 0.11 | FACS-Seq fitted mean (log10) (theophylline [4]): 0.889 ± 0.11

GCUGUCACCGGAAUACCAGCAUCGUCUUGAUGCCCUUGGAAGUCCGGUCUGAUGAGUCCGUCCUGGACGAAACAGC [GUCCU]
FACS-Seq fitted mean (log10) (theophylline [1]): 1.16 ± 0.13 | normalized RNA/DNA level with ligand (log10) (theophylline [2]): 2.03 ± 0.052 | normalized RNA/DNA level without ligand (log10) (theophylline [3]): 2 ± 0.1 | FACS-Seq fitted mean (log10) (theophylline [4]): 1.13 ± 0.12

GCUGUCACCGGAAUACCAGCAUCGUCUUGAUGCCCUUGGAAGUCCGGUCUGAUGAGUCCCUCCUGGACGAAACAGC [CUCCU]
FACS-Seq fitted mean (log10) (theophylline [1]): 0.814 ± 0.015 | normalized RNA/DNA level with ligand (log10) (theophylline [2]): 2.005 ± 0.011 | normalized RNA/DNA level without ligand (log10) (theophylline [3]): 1.88 ± 0.098 | FACS-Seq fitted mean (log10) (theophylline [4]): 0.682 ± 0.033

GCUGUCACCGGAAUACCAGCAUCGUCUUGAUGCCCUUGGAAGUCCGGUCUGAUGAGUCCCUCGAGGACGAAACAGC [CUCGA]
FACS-Seq fitted mean (log10) (theophylline [1]): 0.868 ± 0.018 | normalized RNA/DNA level with ligand (log10) (theophylline [2]): 2.04 ± 0.076 | normalized RNA/DNA level without ligand (log10) (theophylline [3]): 1.95 ± 0.12 | FACS-Seq fitted mean (log10) (theophylline [4]): 0.883 ± 0.1

GCUGUCACCGGAAUACCAGCAUCGUCUUGAUGCCCUUGGAAGUCCGGUCUGAUGAGUCCUUCCGGGACGAAACAGC [UUCCG]
FACS-Seq fitted mean (log10) (theophylline [1]): 0.818 ± 0.089 | normalized RNA/DNA level with ligand (log10) (theophylline [2]): 2.02 ± 0.032 | normalized RNA/DNA level without ligand (log10) (theophylline [3]): 2.017 ± 0.01 | FACS-Seq fitted mean (log10) (theophylline [4]): 0.751 ± 0.086
